Results taken from publication PMC6486541 (Nucleic Acids Research, 2019).
Positions count from the first letter of the chain named.

B1: DNA-1 (W-box DNA) (dsDNA)
DNA 1: GATATTTGACCGGA
DNA 2: TCCGGTCAAATATC
B2: MUT11A (dsDNA)
DNA 1: GATATTTGACAGGA
DNA 2: TCCTGTCAAATATC
B3: MUT9C (dsDNA)
DNA 1: GATATTTGCCCGGA
DNA 2: TCCGGGCAAATATC
B4: MUT8A (dsDNA)
DNA 1: GATATTTAACCGGA
DNA 2: TCCGGTTAAATATC
B5: MUT11T (dsDNA)
DNA 1: GATATTTGACTGGA
DNA 2: TCCAGTCAAATATC
B6: MUT7C (dsDNA)
DNA 1: GATATTCGACCGGA
DNA 2: TCCGGTCGAATATC
B7: MUT10A (dsDNA)
DNA 1: GATATTTGAACGGA
DNA 2: TCCGTTCAAATATC
B8: OsWRKY45–DBD (DNA binding domain of OsWRKY45, residues 104–182) (domain or fragment)
chain: TQQSSGNSVVVKNLDDGQAWRKYGQKEIQNSKHPKAYFRCTHKYDQLCTAQRQVQRCDDDPASYRVTYIGEHTCRDPAT

Key:
[1] = target: T1, OsWRKY45-DBD R142A (Oryza sativa Japonica subspecies, UniProt Q5W6D6 104-182, R142A); test: BLI
T1 sequence: B8 chain with R39A

[2] = target: T2, OsWRKY45-DBD L150M (= OsWRKY45-2-DBD) (Oryza sativa Japonica subspecies, UniProt Q5W6D6 104-182, L150M); test: BLI
T2 sequence: B8 chain with L47M

[3] = target: T3, OsWRKY45-DBD (OsWRKY45-1) (Oryza sativa Japonica subspecies, UniProt Q5W6D6 104-182); test: BLI
T3 sequence: B8 chain

[4] = target: T3, OsWRKY45-DBD (OsWRKY45-1); test: EMSA
[5] = target: the molecule itself; test: AUC

Row | Binder | binding result [4] | also measured
1 | B1 |  | Kd [1]: 13.8 µM; Kd [2]: 7.7 µM; Kd [3]: 4.6 µM
2 | B2 | no binding | 
3 | B3 | no binding | 
4 | B4 | no binding | 
5 | B5 | binds | 
6 | B6 | no binding | 
7 | B7 | no binding | 
8 | B8 |  | stoichiometry N [5]: 2
